What follows are sequences tested against FGFR3 (UniProt P22607) (assay: phosphorylation enrichment, bacterial display (enrichment ratio); higher = better substrate or ligand; peptides without Tyr show the background).
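Note: 11-residue human phosphosite peptides and single-mutation variants displayed on the E. coli surface, counted by deep sequencing, each peptide's frequency after selection divided by its frequency in the unselected input library; frequency after pTyr selection over input frequency; kinase dosed for 20-30% of maximal phosphorylation in three min.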

FGFR3, sequence (P22607 whole entry, looked up): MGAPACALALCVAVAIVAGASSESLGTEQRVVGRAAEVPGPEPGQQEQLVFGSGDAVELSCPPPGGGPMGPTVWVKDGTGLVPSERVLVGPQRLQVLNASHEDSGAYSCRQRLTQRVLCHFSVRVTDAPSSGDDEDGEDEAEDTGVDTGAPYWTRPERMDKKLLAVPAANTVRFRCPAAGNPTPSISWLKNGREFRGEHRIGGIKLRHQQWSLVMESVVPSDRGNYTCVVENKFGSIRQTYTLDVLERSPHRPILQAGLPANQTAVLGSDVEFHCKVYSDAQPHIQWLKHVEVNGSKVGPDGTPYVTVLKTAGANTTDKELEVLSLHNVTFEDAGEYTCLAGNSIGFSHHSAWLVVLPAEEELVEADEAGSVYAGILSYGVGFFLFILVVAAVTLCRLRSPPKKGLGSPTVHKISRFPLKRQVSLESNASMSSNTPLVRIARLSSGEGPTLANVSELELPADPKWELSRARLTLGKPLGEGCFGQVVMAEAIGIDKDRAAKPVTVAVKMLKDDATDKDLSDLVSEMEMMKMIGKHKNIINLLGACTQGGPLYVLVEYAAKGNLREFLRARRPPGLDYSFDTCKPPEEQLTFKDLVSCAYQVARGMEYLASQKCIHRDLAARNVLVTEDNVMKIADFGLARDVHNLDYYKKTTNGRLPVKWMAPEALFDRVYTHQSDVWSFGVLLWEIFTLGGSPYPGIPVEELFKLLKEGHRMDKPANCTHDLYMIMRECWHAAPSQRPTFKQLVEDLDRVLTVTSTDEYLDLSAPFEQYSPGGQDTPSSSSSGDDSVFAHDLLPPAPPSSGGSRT

First: KVGNEYITKGQ [MYH7_Y410_V411I]
Second: GFQPDYGQPAG [SYP_Y278_YF]
The phosphorylation enrichment of the first is lower: 0.443 for the first, 0.483 for the second.

Compared with NYYDTYIKTCL [IQGAP2_Y1445], GFSDPYVKASL [SYT3_Y470] is lower in phosphorylation enrichment: 5.88 for the first, 0.4 for the second.

First: KLGDVYVNVAF [PGK1_Y161_D164V]
Second: HQNGMYGLHQD [SGSH_Y89]
The phosphorylation enrichment of the first is higher: 1.01 for the first, 0.516 for the second.

Going from TSSGGYRRTPS [ABI1_Y333] to EIVYVYVKKRS [DNAI2_Y7], the phosphorylation enrichment rises from 0.428 to 0.675.

Going from GMSQAYSSSQR [DES_Y5] to EMFNPYYGLFE [NEDD4L_Y679], the phosphorylation enrichment rises from 0.382 to 4.84.

First: RRLEPYGENFN [APOA4_Y310_V307L]
Second: IVRSLYEDVED [VHL_Y185_L188V]
The phosphorylation enrichment of the first is lower: 0.493 for the first, 0.674 for the second.

First: DLRGIYQKLVI
Second: GEKKAYVRLAP [RPL23A_Y137]
The phosphorylation enrichment of the first is higher: 0.854 for the first, 0.43 for the second.

Going from IPGMEYLVSII [TNC_Y1775_V1773M] to RAYSWYQHQRA [NDST1_Y714], the phosphorylation enrichment falls from 0.889 to 0.792.

First: NYCPGYNNFYN [USH2A_Y467_R464C]
Second: IVLRSYPASGH [NID2_Y449]
The phosphorylation enrichment of the first is higher: 0.791 for the first, 0.596 for the second.

Going from RALCHYYKLNI [ETV6_Y401_R399C] to FAFQLYDLDRD [CHP2_Y123_YF], the phosphorylation enrichment falls from 5.19 to 0.68.

Going from MPPHIYAITDT [MYH9_Y151] to LENSTYQYIRV [CRB1_Y760], the phosphorylation enrichment rises from 0.514 to 7.65.

Going from ADFFDYGRGLS [KHDRBS3_Y304_H306R_YF] to RRMLQYLTVND [PPFIBP2_Y663], the phosphorylation enrichment falls from 0.702 to 0.632.

First: DDFNLYINVKL [MTHFD1_Y52_S49F]
Second: NVADHYGVYKP [ATP6V0D2_Y271]
The phosphorylation enrichment of the first is higher: 0.997 for the first, 0.451 for the second.

Compared with KWHREYNFKYV [RICTOR_Y835_S837F], SQETYYRVSNM [ABCD1_Y181_Q178E] is higher in phosphorylation enrichment: 0.564 for the first, 4.94 for the second.

Sequence GEVKAYGAGLL [TH_Y419] has a phosphorylation enrichment of 0.371.

What follows are sequences tested on Fer (mouse) in the same assay as above.

First: KVGNEYITKGQ [MYH7_Y410_V411I]
Second: GFQPDYGQPAG [SYP_Y278_YF]
The phosphorylation enrichment of the first is higher: 0.315 for the first, 0.206 for the second.

First: NYYDTYIKTCL [IQGAP2_Y1445]
Second: GFSDPYVKASL [SYT3_Y470]
The phosphorylation enrichment of the first is higher: 1.1 for the first, 0.488 for the second.

First: KLGDVYVNVAF [PGK1_Y161_D164V]
Second: HQNGMYGLHQD [SGSH_Y89]
The phosphorylation enrichment of the first is higher: 0.661 for the first, 0.656 for the second.

Going from TSSGGYRRTPS [ABI1_Y333] to EIVYVYVKKRS [DNAI2_Y7], the phosphorylation enrichment falls from 0.473 to 0.465.

Compared with GMSQAYSSSQR [DES_Y5], EMFNPYYGLFE [NEDD4L_Y679] is higher in phosphorylation enrichment: 0.354 for the first, 6.32 for the second.

Compared with RRLEPYGENFN [APOA4_Y310_V307L], IVRSLYEDVED [VHL_Y185_L188V] is higher in phosphorylation enrichment: 0.315 for the first, 1.69 for the second.

Going from DLRGIYQKLVI to GEKKAYVRLAP [RPL23A_Y137], the phosphorylation enrichment falls from 7.47 to 0.398.

Going from IPGMEYLVSII [TNC_Y1775_V1773M] to RAYSWYQHQRA [NDST1_Y714], the phosphorylation enrichment falls from 0.722 to 0.641.

Compared with NYCPGYNNFYN [USH2A_Y467_R464C], IVLRSYPASGH [NID2_Y449] is lower in phosphorylation enrichment: 0.588 for the first, 0.479 for the second.

First: RALCHYYKLNI [ETV6_Y401_R399C]
Second: FAFQLYDLDRD [CHP2_Y123_YF]
The phosphorylation enrichment of the first is higher: 1.29 for the first, 0.631 for the second.

Compared with MPPHIYAITDT [MYH9_Y151], LENSTYQYIRV [CRB1_Y760] is higher in phosphorylation enrichment: 0.679 for the first, 25.5 for the second.

Compared with ADFFDYGRGLS [KHDRBS3_Y304_H306R_YF], RRMLQYLTVND [PPFIBP2_Y663] is higher in phosphorylation enrichment: 0.4 for the first, 0.456 for the second.

First: DDFNLYINVKL [MTHFD1_Y52_S49F]
Second: NVADHYGVYKP [ATP6V0D2_Y271]
The phosphorylation enrichment of the first is lower: 0.38 for the first, 0.424 for the second.

Compared with KWHREYNFKYV [RICTOR_Y835_S837F], SQETYYRVSNM [ABCD1_Y181_Q178E] is higher in phosphorylation enrichment: 0.357 for the first, 0.549 for the second.

Work on GEVKAYGAGLL [TH_Y419] yielded a phosphorylation enrichment of 0.319.

Each sequence was assayed against Fes (UniProt P07332) in the same assay as above.
Fes, sequence (P07332 whole entry, looked up): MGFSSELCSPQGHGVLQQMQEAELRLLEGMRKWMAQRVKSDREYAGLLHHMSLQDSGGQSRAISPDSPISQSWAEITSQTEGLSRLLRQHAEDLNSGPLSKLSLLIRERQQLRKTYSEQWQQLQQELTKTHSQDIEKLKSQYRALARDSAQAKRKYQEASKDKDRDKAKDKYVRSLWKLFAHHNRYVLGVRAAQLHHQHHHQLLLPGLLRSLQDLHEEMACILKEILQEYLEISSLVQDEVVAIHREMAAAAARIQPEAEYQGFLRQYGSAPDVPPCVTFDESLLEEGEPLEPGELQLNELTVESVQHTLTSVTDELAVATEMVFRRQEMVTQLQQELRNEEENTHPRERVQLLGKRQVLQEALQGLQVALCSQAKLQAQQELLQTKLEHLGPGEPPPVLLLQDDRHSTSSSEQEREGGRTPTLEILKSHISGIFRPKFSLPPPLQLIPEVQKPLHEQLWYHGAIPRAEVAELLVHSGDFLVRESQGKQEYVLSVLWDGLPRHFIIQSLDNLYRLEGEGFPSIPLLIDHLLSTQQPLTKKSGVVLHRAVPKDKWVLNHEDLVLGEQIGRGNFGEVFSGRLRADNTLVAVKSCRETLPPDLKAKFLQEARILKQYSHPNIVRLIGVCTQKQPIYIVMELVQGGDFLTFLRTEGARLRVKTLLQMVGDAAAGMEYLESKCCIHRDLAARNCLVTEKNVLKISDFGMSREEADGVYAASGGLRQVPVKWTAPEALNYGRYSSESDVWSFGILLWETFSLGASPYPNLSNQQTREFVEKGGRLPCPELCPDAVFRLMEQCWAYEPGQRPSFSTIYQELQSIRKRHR

Going from KVGNEYITKGQ [MYH7_Y410_V411I] to GFQPDYGQPAG [SYP_Y278_YF], the phosphorylation enrichment rises from 0.682 to 0.686.

First: NYYDTYIKTCL [IQGAP2_Y1445]
Second: GFSDPYVKASL [SYT3_Y470]
The phosphorylation enrichment of the first is higher: 1.25 for the first, 0.722 for the second.

Going from KLGDVYVNVAF [PGK1_Y161_D164V] to HQNGMYGLHQD [SGSH_Y89], the phosphorylation enrichment falls from 1.08 to 0.886.

Going from TSSGGYRRTPS [ABI1_Y333] to EIVYVYVKKRS [DNAI2_Y7], the phosphorylation enrichment rises from 0.499 to 1.1.

Compared with GMSQAYSSSQR [DES_Y5], EMFNPYYGLFE [NEDD4L_Y679] is higher in phosphorylation enrichment: 0.685 for the first, 1.64 for the second.

First: RRLEPYGENFN [APOA4_Y310_V307L]
Second: IVRSLYEDVED [VHL_Y185_L188V]
The phosphorylation enrichment of the first is lower: 0.732 for the first, 1.26 for the second.

First: DLRGIYQKLVI
Second: GEKKAYVRLAP [RPL23A_Y137]
The phosphorylation enrichment of the first is higher: 1.4 for the first, 0.606 for the second.

Compared with IPGMEYLVSII [TNC_Y1775_V1773M], RAYSWYQHQRA [NDST1_Y714] is lower in phosphorylation enrichment: 1.41 for the first, 1.16 for the second.

Compared with NYCPGYNNFYN [USH2A_Y467_R464C], IVLRSYPASGH [NID2_Y449] is lower in phosphorylation enrichment: 1.06 for the first, 0.817 for the second.

Going from RALCHYYKLNI [ETV6_Y401_R399C] to FAFQLYDLDRD [CHP2_Y123_YF], the phosphorylation enrichment falls from 1.99 to 1.37.

Compared with MPPHIYAITDT [MYH9_Y151], LENSTYQYIRV [CRB1_Y760] is higher in phosphorylation enrichment: 0.936 for the first, 1.86 for the second.

Compared with ADFFDYGRGLS [KHDRBS3_Y304_H306R_YF], RRMLQYLTVND [PPFIBP2_Y663] is higher in phosphorylation enrichment: 0.746 for the first, 0.862 for the second.

First: DDFNLYINVKL [MTHFD1_Y52_S49F]
Second: NVADHYGVYKP [ATP6V0D2_Y271]
The phosphorylation enrichment of the first is higher: 1.67 for the first, 0.645 for the second.

Going from KWHREYNFKYV [RICTOR_Y835_S837F] to SQETYYRVSNM [ABCD1_Y181_Q178E], the phosphorylation enrichment rises from 0.786 to 0.805.

Work on GEVKAYGAGLL [TH_Y419] yielded a phosphorylation enrichment of 0.503.

The sequences below were run against Fyn (UniProt P06241) in the same assay as above.
Fyn, sequence (P06241 whole entry, looked up): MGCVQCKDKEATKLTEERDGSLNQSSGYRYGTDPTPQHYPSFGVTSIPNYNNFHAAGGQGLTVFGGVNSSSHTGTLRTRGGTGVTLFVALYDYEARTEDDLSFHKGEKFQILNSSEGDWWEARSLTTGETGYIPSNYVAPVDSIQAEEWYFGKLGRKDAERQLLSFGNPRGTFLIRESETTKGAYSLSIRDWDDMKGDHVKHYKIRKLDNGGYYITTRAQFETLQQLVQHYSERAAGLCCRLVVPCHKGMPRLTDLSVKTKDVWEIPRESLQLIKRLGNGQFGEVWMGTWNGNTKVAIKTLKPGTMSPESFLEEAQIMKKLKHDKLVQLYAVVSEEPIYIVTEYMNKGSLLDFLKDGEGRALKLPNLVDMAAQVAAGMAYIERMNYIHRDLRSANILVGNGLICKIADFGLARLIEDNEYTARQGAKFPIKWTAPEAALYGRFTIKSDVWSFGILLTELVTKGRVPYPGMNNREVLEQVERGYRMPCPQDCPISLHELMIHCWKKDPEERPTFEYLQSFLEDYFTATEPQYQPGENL

Compared with KVGNEYITKGQ [MYH7_Y410_V411I], GFQPDYGQPAG [SYP_Y278_YF] is higher in phosphorylation enrichment: 0.376 for the first, 0.435 for the second.

Compared with NYYDTYIKTCL [IQGAP2_Y1445], GFSDPYVKASL [SYT3_Y470] is lower in phosphorylation enrichment: 3.03 for the first, 0.374 for the second.

Compared with KLGDVYVNVAF [PGK1_Y161_D164V], HQNGMYGLHQD [SGSH_Y89] is lower in phosphorylation enrichment: 0.645 for the first, 0.568 for the second.

Compared with TSSGGYRRTPS [ABI1_Y333], EIVYVYVKKRS [DNAI2_Y7] is lower in phosphorylation enrichment: 0.433 for the first, 0.354 for the second.

Compared with GMSQAYSSSQR [DES_Y5], EMFNPYYGLFE [NEDD4L_Y679] is higher in phosphorylation enrichment: 0.309 for the first, 8.62 for the second.

First: RRLEPYGENFN [APOA4_Y310_V307L]
Second: IVRSLYEDVED [VHL_Y185_L188V]
The phosphorylation enrichment of the first is lower: 0.281 for the first, 0.488 for the second.

Going from DLRGIYQKLVI to GEKKAYVRLAP [RPL23A_Y137], the phosphorylation enrichment falls from 6.38 to 0.37.

Going from IPGMEYLVSII [TNC_Y1775_V1773M] to RAYSWYQHQRA [NDST1_Y714], the phosphorylation enrichment falls from 0.612 to 0.242.

Going from NYCPGYNNFYN [USH2A_Y467_R464C] to IVLRSYPASGH [NID2_Y449], the phosphorylation enrichment falls from 0.64 to 0.481.

Going from RALCHYYKLNI [ETV6_Y401_R399C] to FAFQLYDLDRD [CHP2_Y123_YF], the phosphorylation enrichment rises from 0.947 to 1.2.

First: MPPHIYAITDT [MYH9_Y151]
Second: LENSTYQYIRV [CRB1_Y760]
The phosphorylation enrichment of the first is lower: 1.73 for the first, 5.14 for the second.

Compared with ADFFDYGRGLS [KHDRBS3_Y304_H306R_YF], RRMLQYLTVND [PPFIBP2_Y663] is lower in phosphorylation enrichment: 0.518 for the first, 0.501 for the second.

First: DDFNLYINVKL [MTHFD1_Y52_S49F]
Second: NVADHYGVYKP [ATP6V0D2_Y271]
The phosphorylation enrichment of the first is lower: 0.46 for the first, 5.55 for the second.

Going from KWHREYNFKYV [RICTOR_Y835_S837F] to SQETYYRVSNM [ABCD1_Y181_Q178E], the phosphorylation enrichment rises from 0.394 to 2.

GEVKAYGAGLL [TH_Y419] showed a phosphorylation enrichment of 0.363.

Reference: the supplement of paper PMC10065799, “High-throughput profiling of sequence recognition by tyrosine kinases and SH2 domains using bacterial peptide display” (eLife, 2023)
